Source: patent publication US5747660A, “Nucleic acid encoding prostaglandin F2α receptor regulatory protein” (priority 1995, dated 1998)
Where “and” joins values, the source holds several entries; their conditions need not be identical. Equal entries are not always repeated. Where two headings read alike, the source gives them in different places.

Legend:
[1] = system: prostaglandin F2α receptor (FP); experiment: Effect of intracellular messenger altering agents on [3H]PGF2α binding and on FPRP inhibition of it; format: cell-based
Experimental: In a third experiment, transfected cells were treated for 30 min with exposure to the following: phorbol 12-myristate 13-acetate 10^-8 M, prostaglandin E1, 10^-7 M, A23187 10^-6 M, okadaic acid 10^-6 M, or 8-Br-cAMP 10^-5 M (Table 4).
The effect of brefeldin A (3 μg/ml, 2 hr), chloroquine (100 μM, 6 hr) and tunicamysin (2.5 μg/ml, 20 hr) was determined.

[2] = target: prostaglandin F2α receptor (FP); conditions: literature value; read-out: [^3 H]PGF2α binding affinity reported by Ito et al. (1994); cited from earlier work
[3] = target: prostaglandin F2α receptor (FP)
Experimental: [^3 H]PGF2α binding (DPM) was normalized to the average quantity of protein per culture dish (65 μg), and plotted against unlabeled PGF2α concentration.
For [^3 H]PGF2α binding experiments, the above electroporated cells were divided equally and cultured in six 35×10 mm culture dishes with 1.5 ml culture media each. […] Briefly, media was removed from the culture dishes, the dishes were washed 4 times in 1 L each of phosphate buffered saline (PBS, 10 mM phosphate), 150 mM NaCl, pH 7.0), and 0.35 ml of binding buffer (1×Hanks, 0.1% BSA, 2 mM MnCl2, 0.5 mM CaCl2, pH 6.0) containing either 2×10^-9 M [^3 H]PGF2α (total binding) or 2×10^-9 M [^3 H]PGF2α plus 2×10^-6 M unlabelled PGF2α (non-specific binding). The binding incubation was at 37° for 20 minutes. Following incubation, the binding buffer was removed, the dishes were washed 4 times in 1 L each of PBS, then 0.5 ml of 1.0M NaOH was added to each dish. Dishes were then incubated overnight at 37° C., the NaOH solution removed, neutralized with 0.5 ml of 1M HCL (made with 200 mM phosphate buffer pH 7.4), vortexed, and aliquots were analyzed for protein by the Bradford technique (1976) Anal. Biochem. 72:248-252, or analyzed for ^3 H content with a Beckman 6000 TA liquid scintillation counter (using Aquasol-2, New England Nuclear, Boston, Mass.; approximate counting efficiency 50-55%).
Saturation binding. A saturation binding experiment was performed to examine the effect of FPRP on FP. Scatchard analysis should discriminate between competitive and noncompetitive methods of FPRP action. [^3 H]PGF2α binding was assessed following transfection with either FP+pSG5 or FP+anti-sense FPRP (2 controls) and following transfection with FP+FPRP or FP+ dss FPRP (2 experimentals). Data are shown in FIG. 9A for unlabelled PGF2α inhibition of [^3 H]PGF2α binding and in FIG. 9B for the Scatchard transformation of this same data.

[4] = system: prostaglandin F2α receptor (FP); experiment: [3H]PGF2α binding in COS cells co-transfected with FP and an FPRP variant construct; conditions: 3.5 μg FP cDNA construct and 5 μg test cDNA construct
[5] = target: prostaglandin F2α receptor (FP), cDNA construct whose species the place does not tell
[6] = target: prostaglandin F2α receptor (FP), cDNA construct whose species the place does not tell; remark: listed apart in the source
[7] = system: prostaglandin F2α receptor (FP); experiment: Cotransfection of a third construct along with FP and FPRP, [3H]PGF2α binding; format: cell-based; conditions: FP + FPRP, no third construct; FP + pSG5 = 100
Source text: Therefore, a strategy based on cotransfection of a third construct (along with FP and FPRP) was pursued. These third party constructs included ones coding for the protease inhibitors alpha-l trypsin inhibitor and crmA, an inhibitor of cell death, bcl2, and few nonspecific control molecules including the vitamin D receptor, a secreted immunoglobulin molecule, and the empty parent vector pSG5 only. All groups and treatments were compared with control treatment of FP+pSG5 vs. FP+FPRP.

[8] = system: prostaglandin F2α receptor (FP); experiment: [3H]PGF2α specific binding to COS cells cotransfected with FP cDNA and a test cDNA construct; format: cell-based, rat, mouse
[9] = system: COS cells (endogenous specific [3H]PGF2α binding); experiment: [3H]PGF2α binding to COS cell cultures transfected with FPRP cDNA construct alone; format: cell-based; conditions: COS cells transfected with FPRP cDNA construct only, 24 h
Experimental: COS cells were electroporated, cultured for 24 h and analyzed for specific [^3 H]PGF2α binding. Total transfected DNA is indicated on the abscissa. Data points represent mean±standard deviation, n=3.
Methods. COS-1 cells were used for transient expression experiments. Briefly, 70-80% confluent cultures (grown in Ham's F-12 media plus 8% fetal bovine serum, with media replacement 24 hours prior to transfection)were harvested with a trypsin/EDTA solution (final concentration: 0.02% ethylenediaminetetracetic acid, 0.05% sodium bicarbonate, and 0.5% Enzart 40x trypsin), washed twice with culture media, then resuspended in ice cold culture media at approximately 1.66×10^7 cells per ml. Aliquots of 0.15 ml (2.5×10^6 cells) were placed in electroporation cuvettes (BioRad, Hercules, Calif.) along with plasmid DNA, placed on ice for 10 minutes, electroporated with a Bio Rad electroporater (settings: 250 μF, […], .infin..OMEGA., 0.4 cm cuvette), 1 ml of ice cold culture media was added and the cells were left on ice for 10 minutes before plating.
The binding incubation was at 37° for 20 minutes.

[10] = system: prostaglandin F2α receptor (FP); remark: listed apart in the source
Experimental: Models for FPRP interaction with FP were tested as follows. First, a conditioned media experiment was performed with either the pSGS vector, or the FPRP cDNA construct transfected into COS cells. Following plating and culture of these transfected cells for 24 hours the media in which the cells were grown was placed on cultures of cells transfected with FP. The cells transfected with FP and cultured with the conditioned medium for 4 hours were then analyzed for [^3 H]PGF2α binding. In a second experiment, FPRP or pSG5 were transfected as described above into one set of cells, FP alone into a second set of cells, and the cells co-cultured in the ratios shown in Table 3.
Briefly, COS cells were transfected with FP, pSG5, or FPRP, and plated. 24 h post transfection, media was removed from the pSG5 and FPRP transfected cultures, centrifuged 7 min at 1000×g, and added back to the FP culture media at the indicated ratios. Following 4 h of this media treatment, [^3 H]PGF2α binding was analyzed. As a control, FP and FPRP were cotransfected. For co-cultured cells, COS cells were transfected with FP, pSG5, or FPRP, mixed at a 1:1 ratio and cultured. As a control, cells were either transfected with FP or FP+FPRP.

[11] = system: prostaglandin F2α receptor (FP); remark: listed apart in the source
Experimental: Cells transfected with either FP and pSG5 or FP and FPRP were plated in normal media containing serum and at either 21 h, 6 h or 0 h prior to [^3 H]PGF2α binding analysis had their media replaced with serum deficient medium, in order to obviate any effects due to hormones or factors present in the added serum.

[12] = control treatment (EtOH vehicle or Control), no agent

CCCCC[C@H](O)/C=C/[C@@H]1[C@@H](C/C=C\CCCC(=O)O)[C@@H](O)C[C@H]1O [PGF2α, Prostaglandin F2α]
% Control [^3 H]PGF2α Binding, FP + FPRP ([1]; FP + FPRP transfected cells treated with the agent): 40 ± 3%
% Control [^3 H]PGF2α Binding, FP + pSG5 ([1]; FP + pSG5 transfected cells treated with the agent): 73 ± 9%
effect of agent on basal [^3 H]PGF2α binding ([1]; FP transfected cells pretreated with the agent): decreased subsequent basal FP binding
% Inhibition (FPRP inhibition of [^3 H]PGF2α binding) ([1]; in presence of the agent at the concentration/time given): 45%
Kd [2]: 25 nM
Kd ([3]; read-out: [^3 H]PGF2α binding affinity, FP + pSG5, asFPRP, FPRP or dssFPRP: all 4 treatments similar): 8 nM

B1: rat prostaglandin F2α receptor regulatory protein (FPRP) (protein)
chain: RVVRVPAGTLVRVVGTELVIPCNVSDYDGPSEQNFDWSFSSSGSSFVELASTWEVGFPAQQYRERLQRGDILLRRTANDAVELHIKNVQPSDQGHYKCSTPSTDATVQGNYEDTMQVKVLADALVVGPSSRPPPGLSLREGEPFELRCIASTTSPLHTHLALRWELHRGPVHRSILALSHEGRFHPGPGYEQRYHSGDVRLDTVGSDAYRLSVARALSADQGSYRCVVSEWITEQGSWQEIQEKAVEVATVVIQPTALQLAVPRTVSVTEGKDLDLSCNITTDRVDDVRPEVTWYFKKTPDTSLLASHMLARLDRDSLVHSSPHVALSHVDTRSYHLLVRDVSKENSGYYLCLVALWAPGHNRSWHKVAEAMSAPSGVSVTWLEPEYQVYLNASKVPGFSDDPTELQCRVIDTKRVDAGVRLTVSWYYRMNRRNDDVVASELLAVMDGDWTLRYGERSKQRAQDGEFIFSKEHTDTFSFRIQRTTEEDRGSYYCVVSAWTRQRNSSWVKSKDVFSKPVNIFWASEDSVLVVKARQPKPFFAAGNTFEMTCKVSSKNIKSPRYSVLITAEKPVGDLSSPNETKYIISLDQDSVVKLENWTDASRVDGVVLEKVQEDEFRYRMYQTQVSDAGLYRCMVTAWSPIGGSLWREAATSLSNPIEIDFQTSGPIFNASVHSDTLSVTRGDLIKLFCIVTVDGAVLDPDDMAFDVSWFAVHSFGLDKAPILLSSLDRKGVVTTGQRDWKSTVSLERVSVLEFLLQVHGSEDQDFGNYYCSVTPWVRSPTGSWQREAEIHSRPIFITVKMDVLNAFKYPLLIGVGLSTVIRLLSCLIGYCSSHWCCKKEVRETRRERRRLMSMEMD
inhibitory activity of FPRP variant on [^3 H]PGF2α binding [4]: may be slightly more active at lower concentrations but does not inhibit quite as well as native FPRP (construct 232) at high concentrations
% control ^3 H!PGF2α binding, co-culture of FPRP transfected cells with FP transfected cells 1:1 [5]: 120 % control
% control ^3 H!PGF2α binding, conditioned media from FPRP transfected cells on FP transfected cells [5]: 103 % control
inhibition of ^3 H!PGF2α binding, saturation binding experiment [6]: 60%

B2: FPRP: rat prostaglandin F2α receptor regulatory protein (SEQ ID NO:1), expressed from FPRP cDNA in pSG5, construct 232 (SEQ ID NO:10) (protein)
chain: MGRPAPRPLLLALLSLAVCRGRVVRVPAGTLVRVVGTELVIPCNVSDYDGPSEQNFDWSFSSSGSSFVELASTWEVGFPAQQYRERLQRGDILLRRTANDAVELHIKNVQPSDQGHYKCSTPSTDATVQGNYEDTMQVKVLADALVVGPSSRPPPGLSLREGEPFELRCIASTTSPLHTHLALRWELHRGPVHRSILALSHEGRFHPGPGYEQRYHSGDVRLDTVGSDAYRLSVARALSADQGSYRCVVSEWITEQGSWQEIQEKAVEVATVVIQPTALQLAVPRTVSVTEGKDLDLSCNITTDRVDDVRPEVTWYFKKTPDTSLLASHMLARLDRDSLVHSSPHVALSHVDTRSYHLLVRDVSKENSGYYLCLVALWAPGHNRSWHKVAEAMSAPSGVSVTWLEPEYQVYLNASKVPGFSDDPTELQCRVIDTKRVDAGVRLTVSWYYRMNRRNDDVVASELLAVMDGDWTLRYGERSKQRAQDGEFIFSKEHTDTFSFRIQRTTEEDRGSYYCVVSAWTRQRNSSWVKSKDVFSKPVNIFWASEDSVLVVKARQPKPFFAAGNTFEMTCKVSSKNIKSPRYSVLITAEKPVGDLSSPNETKYIISLDQDSVVKLENWTDASRVDGVVLEKVQEDEFRYRMYQTQVSDAGLYRCMVTAWSPIGGSLWREAATSLSNPIEIDFQTSGPIFNASVHSDTLSVTRGDLIKLFCIVTVDGAVLDPDDMAFDVSWFAVHSFGLDKAPILLSSLDRKGVVTTGQRDWKSTVSLERVSVLEFLLQVHGSEDQDFGNYYCSVTPWVRSPTGSWQREAEIHSRPIFITVKMDVLNAFKYPLLIGVGLSTVIRLLSCLIGYCSSHWCCKKEVRETRRERRRLMSMEMD
% Control [^3 H]PGF2α Binding [7]: 37 ± 5%
decrease of viability of the transfected cells (COS cells): 20-60%
% Control [^3 H]PGF2α Binding, FP + FPRP [1, 12]: 52 ± 3% and 37 ± 3%
% Inhibition (FPRP inhibition of [^3 H]PGF2α binding) [1, 12]: 48% and 63%
% CONTROL, [^3 H]PGF2α specific binding ([8]; COS cells cotransfected with FP + the named DNA, FP alone = 100): 30-50%
inhibitory activity of FPRP on [^3 H]PGF2α binding ([8]; COS cells nearly 100% confluent, media replaced ≈48 h prior to transfection): approximately 60%
% CONTROL [^3 H]PGF2α BINDING (FPRP inhibitory activity) ([8]; Standard: 80% confluent cells, 40 μg/dish post-electroporation, binding assay at 24 h): 30-50%
% CONTROL [^3 H]PGF2α BINDING (FPRP inhibitory activity) ([8]; binding buffer of Weipz et al. (1992), pH 6.0): 53 ± 8%
% CONTROL [^3 H]PGF2α BINDING (FPRP inhibitory activity) ([8]; binding buffer: standard buffer pH 6.0): 41 ± 5%
% CONTROL [^3 H]PGF2α BINDING (FPRP inhibitory activity) ([8]; binding buffer: standard buffer pH 7.0): 45 ± 3%
effect on [^3 H]PGF2α binding to FP ([8]; cotransfection with rFP or mFP): inhibited rFP and mFP equally
% CONTROL [^3 H]PGF2α BINDING (FPRP inhibitory activity) ([8]; density of cells post-electroporation: 40 μg/dish): 40 ± 5%
% CONTROL [^3 H]PGF2α BINDING (FPRP inhibitory activity) ([8]; density of cells post-electroporation: 20-30 μg/dish): 30 ± 5%
% CONTROL [^3 H]PGF2α BINDING (FPRP inhibitory activity) ([8]; density of cells post-electroporation: 60-80 μg/dish): 43 ± 4%
% CONTROL [^3 H]PGF2α BINDING (FPRP inhibitory activity) ([8]; density of cells prior to electroporation: 60-70% confluent): 35 ± 3%
% CONTROL [^3 H]PGF2α BINDING (FPRP inhibitory activity) ([8]; density of cells prior to electroporation: 80% confluent): 40 ± 5%
% CONTROL [^3 H]PGF2α BINDING (FPRP inhibitory activity) ([8]; density of cells prior to electroporation: 100% confluent): 38 ± 4%
% CONTROL [^3 H]PGF2α BINDING (FPRP inhibitory activity) ([8]; time between electroporation and binding: 24 hr): 36 ± 3%
% CONTROL [^3 H]PGF2α BINDING (FPRP inhibitory activity) ([8]; time between electroporation and binding: 48 hr): 33 ± 3%
effect of FPRP expression on [^3 H]PGF2α binding [9]: marked, dose dependent decrease
% Control [^3 H]PGF2α Binding ([10]; FP + FPRP cotransfection pos. control of the conditioned media experiment): 43 ± 5%
% Control [^3 H]PGF2α Binding ([10]; FP + FPRP cotransfection positive control of the co-culture experiment): 45 ± 3%
% Control [^3 H]PGF2α Binding ([10]; FP cells + 1:2 media from FPRP transfection, 4 h): 103 ± 10%
% Control [^3 H]PGF2α Binding ([10]; FP cells + 1:4 media from FPRP transfection, 4 h): 112 ± 10%
% Control [^3 H]PGF2α Binding ([10]; FP cells + 1:8 media from FPRP transfection, 4 h): 113 ± 11%
% Control [^3 H]PGF2α Binding ([10]; FP transfected cells co-cultured 1:1 with FPRP transfected cells): 120 ± 10%
ability to inhibit [^3 H]PGF2α binding to FP ([10]; conditioned media or co-culture type experiments): unable to inhibit
inhibition of [^3 H]PGF2α binding to FP ([3]; saturation binding experiment, FP + FPRP cotransfection): approximately 60%
type of inhibition of [^3 H]PGF2α binding ([3]; saturation binding, Scatchard analysis): non-competitive inhibitor
% Control [^3 H]PGF2α Binding ([11]; Serum Removal: t = 1 h): 38 ± 7%
% Control [^3 H]PGF2α Binding ([11]; Serum Removal: t = -6 h): 48 ± 4%
% Control [^3 H]PGF2α Binding ([11]; Serum Removal: t = -21 h): 41 ± 3%
effect of growth in serum deficient media on percent of FPRP inhibition ([11]; serum deficient medium 21 h, 6 h or 0 h prior to binding): did not alter
